Assay results published in the supplement of paper PMC6755084.

B1: minF1; a variant is named by its letters at N, in order (parent)
chain: GAGACCGCAACTGAAAAGTTGTTNNNNAANNNNGGNTNNATTTCTGCACGTAGAAGCAAAAGGC

Variants of: B1
Assay: fraction ligated after 30 min (ligated reads / total reads); higher = more ligase activity
Details: with F1*subA RNA substrate (template-directed ligation), 42 °C
Protocol: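 Chip-synthesised pool of minF1 ligase ribozyme variants (single and double substitutions, single to quadruple deletions, bulge and P2 designed variants) was transcribed with T7 and reacted as a pool with excess substrate F1*subA for 30 min at 42 C in 50 mM EPPS pH 8.5, 25 mM MgCl2. Ligated and unligated RNAs were separated by PAGE, barcoded by RT and deep sequenced; fraction ligated = ligated reads / total reads, relative activity = FL / FL of wild-type minF1 (0.76); sequencing FL correlated with PAGE (R2 = 0.98). Sequences are the DNA template of the ribozyme.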
In the case of AAGATGGGTGA, the fraction ligated is reported as 0.00372.
CAGATGATTGA T23A gave a fraction ligated of 0.00168.
TAGATGGAGTG T23A showed a fraction ligated of 0.00424.
TAGATGATGTA gave a fraction ligated of 0.00158.
Work on TAGATGATGTG yielded a fraction ligated of 0.0051.
In the case of TAGATGGATGA, the fraction ligated is reported as 0.00101.
In the case of TAGATGAGTGA T23A, the fraction ligated is reported as 0.00274.
Work on TAGATGGTGTG T23A yielded a fraction ligated of 0.00451.
Variant TAGAGGATTGA T23A has a fraction ligated of 0.00191.
Variant CAAAGATGTGA T23A A28T A29G has a fraction ligated of 0.0035.
ACAAGGATGTA A29T was tested, and the fraction ligated was 0.00548.
Work on AAAAGATGTGA T23A A28T A29G yielded a fraction ligated of 0.00631.
Work on TAGATATGTGA yielded a fraction ligated of 0.00128.
Variant CAGATGAGTGA T23A has a fraction ligated of 0.00277.
AAGATGATGTG showed a fraction ligated of 0.00397.
With AAGATGATGTA the fraction ligated was 0.00102.
In the case of TAGAGATGTGA, the fraction ligated is reported as 0.00183.
AAGAGGATGTG A29T gave a fraction ligated of 0.00669.
In the case of CAGAGGTGTGA A29T, the fraction ligated is reported as 0.00368.
Variant CAAAGGTGTGA A29T has a fraction ligated of 0.00133.
In the case of TCAAGGAGTGA T23A A29T, the fraction ligated is reported as 0.00288.
In the case of TCAAGGATGTA, the fraction ligated is reported as 0.0017.
Work on AAAAGGATGTA A29T yielded a fraction ligated of 0.00276.
CAGATGGGTGA T23A showed a fraction ligated of 0.00475.
For TAGAGGAGTGA, the fraction ligated was 0.00669.
For ACAAGGAGTGA, the fraction ligated was 0.00357.
In the case of CAGAGGAGTGA T23A A29T, the fraction ligated is reported as 0.000641.
Work on CAGATGATGTA T23A yielded a fraction ligated of 0.00233.
CAGAGGATGTA A29T showed a fraction ligated of 0.00385.
For CAAAGGTGTGA T23A A29T, the fraction ligated was 0.00303.
TAAAGATGTGA A29G gave a fraction ligated of 0.00158.
Variant TAAAGATGTGA A29T has a fraction ligated of 0.00224.
For TAAAGGAGTGA T23A A29T, the fraction ligated was 0.00645.
In the case of AAGATGGAGTG G34T, the fraction ligated is reported as 0.00776.
Work on ACAAGGATGTA yielded a fraction ligated of 0.00108.
For AAGATGTGTGA, the fraction ligated was 0.00241.
In the case of TAGATGGAGTA, the fraction ligated is reported as 0.00154.
For TAGATGGAGTG, the fraction ligated was 0.00279.
With CAGATGATTGA the fraction ligated was 0.0023.
In the case of TCAAGATGTGA A28T A29G, the fraction ligated is reported as 0.00257.
With CAGATGGAGTG G34T the fraction ligated was 0.0137.
With CAGAGGATGTG A29T the fraction ligated was 0.0108.
In the case of AAGATATGTGA, the fraction ligated is reported as 0.00183.
AAGATGGAGTT G34T T37G A40G was tested, and the fraction ligated was 0.0006.
For AAGAGATGTGA A29T, the fraction ligated was 0.00363.
Work on AAGAGATGTGA A29G yielded a fraction ligated of 0.00367.
With CAGATGTGTGA the fraction ligated was 0.00342.
CAAAGGAGTGA T23A A29T gave a fraction ligated of 0.00224.
CAAAGATGTGA T23A A29T showed a fraction ligated of 0.00168.
In the case of CAAAGATGTGA T23A A29G, the fraction ligated is reported as 0.00234.
CAAAGGATTGA A29T gave a fraction ligated of 0.0034.
Work on TAGAGGATGTG T23A A29T yielded a fraction ligated of 0.00945.
Work on TCAAGATGTGA T23A A29T yielded a fraction ligated of 0.00239.
TCAAGATGTGA T23A A29G gave a fraction ligated of 0.00178.
CAGATGGAGTA was tested, and the fraction ligated was 0.00249.
Work on CAGATGGAGTG yielded a fraction ligated of 0.00678.
Work on TAGAGATGTGA T23A A28T A29G yielded a fraction ligated of 0.00684.
Work on AAGAGGTGTGA A29T yielded a fraction ligated of 0.00145.
AAGATGGATGA was tested, and the fraction ligated was 0.00526.
Variant CAGATATGTGA has a fraction ligated of 0.00323.
TAGAGGATGTG T23A showed a fraction ligated of 0.00675.
For CAAAGGAGTGA A29T, the fraction ligated was 0.00216.
Variant AAGATGATTGA has a fraction ligated of 0.0028.
Work on TCAAGGATGTA A29T yielded a fraction ligated of 0.00204.
Variant CAGATGGTTGA has a fraction ligated of 0.000297.
TAAAGGATGTA A29T was tested, and the fraction ligated was 0.00265.
In the case of CAGATGGAGTG T23A, the fraction ligated is reported as 0.00354.
In the case of TAGAGGATGTA, the fraction ligated is reported as 0.000988.
Variant TAGAGGATGTG has a fraction ligated of 0.00216.
TCAAGGAGTGA A29T showed a fraction ligated of 0.00143.
Variant CAGAGATGTGA A29G has a fraction ligated of 0.00315.
CAGAGATGTGA A29T was tested, and the fraction ligated was 0.00205.
In the case of CAGATGGAGTG T23A G34T, the fraction ligated is reported as 0.0111.
CAAAGATGTGA A28T A29G gave a fraction ligated of 0.00352.
For CAGATGGTGTA, the fraction ligated was 0.00171.
With CAGATGGTGTG the fraction ligated was 0.00377.
Variant TAGATGGAGTT G34T T37G has a fraction ligated of 0.00107.
Variant CAGAGGATTGA T23A has a fraction ligated of 0.00223.
In the case of CAAAGATGTGA A29T, the fraction ligated is reported as 0.00371.
In the case of CAAAGATGTGA A29G, the fraction ligated is reported as 0.00439.
For TCAAGATGTGA A29G, the fraction ligated was 0.0031.
TCAAGATGTGA A29T was tested, and the fraction ligated was 0.00235.
In the case of CAGATGGTGTA T23A, the fraction ligated is reported as 0.00242.
With AAAAGGATGTG A29T the fraction ligated was 0.00334.
